Data on 69 sequences can be found in the domain aggregation screens of Martell et al. (2025).

A short description of this data set: soluble fraction after stress (log2 fold change); higher = more stays soluble; pooled small domains, quantitative proteomics. Conditions: stress: pH 4. The essentials: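 After pH 4 stress, pooled custom libraries of small protein domains were quantified with high-throughput quantitative proteomics. Aggregation propensity is taken from the fold change in each domain's soluble amount following the acid stress. The scale is log2, where higher values mean more stayed soluble.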
As for “HMIGKDLLGYEVFSESGDLVGILKDVMWLPHSDVYVITNGGKELLIPVIPEVVKGINHEQGVIVISPM”, the “soluble fraction (log2)” value was -1.04.
Take “HMIGPYAAAKLMTNKDFVKWLSGGVEKSVFNPNSFGQHIRRLVQISEVNPDIRDEINAVVQGLTQ”: the “soluble fraction (log2)” value is -0.00821.
In the case of “HMIGRIKGQLIEKKSDSVVIDVHGIGYVVYVTEKTARSLTLGDQSRDISLYSELLVKEDLLQLVGFI”, the “soluble fraction (log2)” value is -0.0095.
Take “HMIGRRLKVARASAGLSLRELAARMDGVVTPQAIGKYERNEDMPGSRALMALASALGVSEGYLLSD”: the “soluble fraction (log2)” value is -0.0156.
Turning to “HMIHDSAESVVFPFGKYKGYTLAHVIREHPHYTYWIRDNADFSPLWREAVSLALQNRDIGHLNLPHVK”, the “soluble fraction (log2)” value was -0.606.
Take “HMIHMNMGQKINQLRLQKGFTLEELGNLVGVGKSTVRKWENGMIANMKRDKILLVAEALDTSPAYLMGWD”: the “soluble fraction (log2)” value is -0.462.
In the case of “HMIIENIVVEIKGEVYNPGLYILEQGSRINDLIELSGGFTKDANGTDLNLAKVLSDGEVIIVSKKG”, the “soluble fraction (log2)” value is -1.35.
Take “HMIIIMKPNASEEAVRKVTHIIESKGLQVHLSKGSQVTIVGVVGDKTRLQGSNIEISEGVDKVVAVT”: the “soluble fraction (log2)” value is -0.0906.
To “HMIILDASASRAIGNGTIEETKWDFGNGESSTNRGGPIVERQIYANQAAYILKLSMKTNDGQLFTKEIQLL” belongs -0.0529; to “HMIINKFERRKEIQIQFNNQERIKFKDFFLNLSKENIIVSFLILLELVRESLIDFSGTNENDIEFFIK”, -0.834.
In the case of “HMIITTPYKVTASAINIRSGRGTSYSIIGTVSKGQTVDVYNNSLSKGWVKVKFSGSVGYAYAKYLEK”, the “soluble fraction (log2)” value was -0.116.
As to “HMIIVMSANANAREISEVIARIRAMGYDVHLSHGKERTIIGVIGRGTPIDREQLSLMSGVQQVMPV”, the “soluble fraction (log2)” value is -0.109.
The result for “HMIKIEDILNVESVELSDSEYKKFLNGILINVKNLENGWAKVYSGNEFKGFGIVDKNLLKRKIVID” reads -0.407; that for “HMIKIEDYTNKDYNKVEASLEVKGLVVNIEYKAVDDKAKYKGKEDLIIDQSVKKDATLVKGDTIILYLPK”, 0.0435; that for “HMIKISDYLSEEDLNFIKEMEKIYPYFDFDSEGNLILTKSIDELKDKYGFDEAFVSRLDTVLNSR”, -0.243.
To “HMIKITLGWVISVRRHDLGYTQHKMARAVGISDLTVSRIESDDGITPDNNTLRKIAEYLKIDYNSLLTLK” belongs -0.175; to “HMIKLIKKDTNISELKMSKMPWDVMLYGKPYQVVSIKGYVHTIGGRRGENDLWMYPRDESPTYENLIEFQ”, 0.279; to “HMIKNKDRIQYTLAHRKAFRKIEKELLGYNTFRSLFHDLDKVFLYPFFDYKKVHNFHRNHAHH”, 0.0879.
On to “HMIKRETNDNPVDPASLSLGDRVKILTLNQNGEIISLPDEKGLLQVQVGIMKIGVNVSDIMLI”, for which the “soluble fraction (log2)” value was -0.413.
In the case of “HMIKRITDEQHPVDVDRLLVVTFTNAAASEMRERIGDAIEAALEKDPYNQHLQRQLTLVHNAQITTIDS”, the “soluble fraction (log2)” value came out at 0.00503.
The result for “HMIKSEERIQNIKEYILEFQFTYHRTPTMAQIAEAVGTVKSNVYKYLSEMEERGILTRNKREIEINDTIQ” reads -0.588; that for “HMIKSMTGYGSAKGTVEGIEVSVELKSVNNKFLDTSIRLPRSFLFAEETIKQAVSSHISRGKVDVFVSVDS”, -0.0706; that for “HMIKYTIEELGELTGFTRRTIRYYVQEGLIDPPAGRGRGGFYYDSHVQQLLRIKSFQEKGIGITAMVSLM”, -1.71.
With “HMILEEIIGKNIARYREAAGLTQATLAEKIGISTAFVSRVERGQKKMKVETLYATAKVLNVSVDALLS”, the “soluble fraction (log2)” value was 0.0651.
As to “HMILKNVPSNLVNQRLDKVATVLFQTYSRTQIKKWILEGRLLVNGEISNPKDLVNENDEIEINPI”, the “soluble fraction (log2)” value stood at 0.3.
The result for “HMILKQTHIVQELTGPIRLQEYGVGIFQQISTKSALKKALKKNQITVDGVVGSTATFIKGGEIIIYHVTE” reads -1.68.
The result for “HMILNDRSELLDVVKRVIAANPASVADYRKGKKKVLGFLVGQAMKETKGQADPRILNELFLQELGEN” reads 0.0701; that for “HMILNNAKINTELNSLAEFTQRSLDSNTSEIGFYDYKKISYIASFATMKTTNWNVIIRAPINEFMGTVN”, 0.203; that for “HMILQTLSERVTETLRDWILHGHFKPGDKIEEVPIAERMGVSRTPVRAAFATLTNEGLIDHQPNRGYQVRV”, 0.201.
“HMILSTNFFRHIVPKEYQTSYGTMKKWLTDHNVIGTNSIPQGIGYRIPTQGLSSTFSFKVVDVLPDR”: the “soluble fraction (log2)” value was no less than 0.43.
For the sequence “HMIMDQTILRKQRELTDRLNRYRNEYYNHNKPSVSDEVYDRLFDELQSLEKETGVQMANSPTTTVG”, the “soluble fraction (log2)” value was 0.0972.
The result for “HMIMGTITKRTNPSGAIVYRAQIRIKKAGYPDFSESRTFSKKAMAVEWLKLREAELEMHPELLFR” reads 0.0366.
Regarding “HMIMHLNQIIRNKRLAAGLTQEALAQKVGVTAPAVSKWEKGISYPDITLLPILARNLNTDVNTLLDFSA”, the “soluble fraction (log2)” value is 0.0644.
As for “HMIMNLNVLANNVRRLRTAQRLSQSALASKAGLSVPAIKNLENARNEPRVNTVQVIAHALEVRLQDLFAPT”, the “soluble fraction (log2)” value was determined as 0.18.
To “HMIMTEKEKKLLNRYIMHDTIHKLYHEQNKSMRWIADNLGINFRTVQKYLDMDSGEFQKYSESISNR” belongs -0.141; to “HMIMTIYEYIARNNPTGAKRVIESFGYVVTQPKKMGDNLRMLVAQEGEPALKAVVDLHPDKDLILEV”, -1.93.
To “HMINAQETEIYRFLIEKANRLYSMVLGLKREELMTATRQFEEEVKHSSIHHLPKIYQAFSSYLELLERG” belongs -0.207; to “HMINDKLQHLFSLFPAMDKELKRKGITRQILWVEYKKQYPLGFGRSQFNSYFAAWKAQVSPS”, 0.204; to “HMINFLSKREIEVLRLVADGLSNRDVGQYLFISESTVKRHLSTIYEKLAVKSRTQAIDHARRADL”, -1.39.
As to “HMINGTITFYDDTTLKGELSSLDTKYLFIIPNGLVMPEKIAVSDIEYFNLDNGITLIQDGISKQTY”, the “soluble fraction (log2)” value was -1.11.
As for “HMINLGDLEVGHTYHTRMPILQNDLKYSHKSPIQIVAEHSIVYGVRVYIGFLNEHRVLVTADDV”, the “soluble fraction (log2)” value was -0.269.
Regarding “HMINLRTALNNAGVMQKELSDILYMTPQDVNRRFSGVTKWKPLEKRAIMQFLEDRGFEYTEEQLF”, the “soluble fraction (log2)” value was -0.883.
Take “HMINLVPFELKFITAQVLDDIIKKIGINADTIILDINPKKIWVYAGEQELSDIQNIVKNVDVEDNI”: the “soluble fraction (log2)” value is -2.17.
With “HMINVLTPKQIEATTIAVKYGYYENPRTVSMRELSEISGIARSTLQEHLSKAEAALMILAAKSQL”, the “soluble fraction (log2)” value was -0.0956.
The result for “HMINVVDEVIKHLETNIISGFWAPGQKIDSEATLSKQLNVSRASIHTAIQQLIATGVLESFQGKGTFVRS” reads -0.226.
On to “HMIPDGKWKEDPISDGQKNFINSLIEQAIDAGQDELGAEAKKYLASGEATKGNASAMIDKLKSAL”, for which the “soluble fraction (log2)” value was found to be 0.398.
The result for “HMIPDMSLELAMSEQTSKGDLYGDLPNDKLALMFNAISKKVPHTDDHKRKMVAIQTILESRAS” reads 0.0127; that for “HMIPEGKWMEDPISEGQIKFIETLIKQAIDSGQDALGAEAKQYLSSGEATKGNASSMIDKLKDAL”, -0.479; that for “HMIPEILNGYTKWGDDEPFEDHAGPFYMKMMPSTGRHLSAFIPEQRHMNGGGFLHGGMLMSFADYALFVI”, -0.491.
“HMIPEKEISYMMPDGFMPKELKIIHITESGRKQIYSAAHKPLDLVNVKAPFVPNTKVQIYINDVPIEELKI”: the “soluble fraction (log2)” value is -0.739.
For “HMIPKDKQAWIALTYIYGVGRTTSMEILKKAQVGEEIRMKDLTEEEVTRIRNIIDKEYEVEGDLRRN”, the “soluble fraction (log2)” value was -0.762.
For the sequence “HMIPNEKEAARWDALTAEHTAKLNALEGDALDKVGSHEDVSIKRAGVGDAAFREKILSRTHPDDLERALST”, the “soluble fraction (log2)” value was determined as 0.3.
Consider “HMIQHFARKRRQLELAVQRLSGRMAETNGQVTADMQRLIQQVKALVAELSHVFSRAYLRRVLGGVALVIGS”, for which the “soluble fraction (log2)” value was -0.145.
“HMIQLTDAEFNELVTYIKKNYGINLIKKRLLIEARMYSVLAKHGFTSFTEYINLIKRDPAELNTMLNKLTT”: the “soluble fraction (log2)” value is 0.126.
To “HMIQMRVKVPKNIAGGSLMGAHHFVKSALARTNPGGSTSNYKIQATDGTPLTLGDLTARQYDEVLIISG” belongs -0.617; to “HMIQTKKVTFTVEPTVNFEKINISGIEFKINSGSSITAIYEKNSHNFDEVLDFLKQKGVKILDIVTED”, -0.824; to “HMIRILIVDDSAFMRKLLSDVFEEDKNFVVVDTARNGQDAVEKVKRLKPDLVTMDVEMPVMDGLTAVEIIM”, -1.12.
For the sequence “HMIRSNLAEQAYAQLKALIHDFQLLPGDRFSENEMGTRLGVSRTPVREALFRLRNEGFLEVESKAGWYVK”, the “soluble fraction (log2)” value is -1.73.
The result for “HMISAADLQTYLKGMDYPAGREDLVAHAQRNNAPESVITILQGFSDRTYRSAAEVSEEFGRE” reads -0.371.
Regarding “HMISADSSKVDTLVQVYSNMKPIQAAQVFEKMDEDLVIEILSRMKKKNAADILNLIKTEKAQVFAEKYA”, the “soluble fraction (log2)” value is -0.0774.
In the case of “HMISAEPVGEDLFKVAFPFLGGSTVFEKTIEQFIEEHPSKRIDHIYTVPNPLRLKKADALIFYIITEEK”, the “soluble fraction (log2)” value is -1.12.
For the sequence “HMISASDLQTYLKGMDYPARKEDLIVHAQRNNAPESVIAAIRQFSDRTYQSAADVSEEFGKI”, the “soluble fraction (log2)” value was -0.468.
“HMISDEELLVSTKKEIMSLATVLTKTDKKDDAIAIMKEYDPAANPNRIKDVNKAKELLERLQKLG”: the “soluble fraction (log2)” value is -0.104.
With “HMISDISEIEAIIVEVLKVFPNQLQEYLDGKEKILSFFVGQVMQRTKGRANPSLVNEILKEKIKN”, the “soluble fraction (log2)” value is -0.417.
The result for “HMISEAEGTILQLLKEADGTLPFTYKSDADEIKKVFGMSKKNFKRTLTELIEAKKIQLLDDAIVL” reads -0.0222; that for “HMISEKEIKIIEDILARWNGKLTWDDFTSKVAKKLNLPSLSKFTLMGYPEIKQAFLTRKQTLK”, -0.382.
As for “HMISENFVEAKILLTEDNRPKSLEILKDIIRQHDKVYSPLSLFLILDEDLEENKEIILEYFDLVLS”, the “soluble fraction (log2)” value is -1.38.
To “HMISESLLDEIPGLGETRRNSLLREFGSVAMIRKASAEEIASRVRGIGAEFAAAIHDFLQTH” belongs 0.0801; to “HMISFHEYLTQLLDEKGLTKAQVITDSNIQKNYGYQIFDGSKTPSRDKVIAIALAMQLTLDEANRLLHLSN”, -0.618.
